{"source": "the RNAGym collection of RNA variant scans (doi:10.1073/pnas.2313332121)", "parents": {"B1": {"name": "TPR t1 (parent)", "chain": "GACCAAUCUGCCCUCAGAGCUCGAGAACAUCUUCGGAUGCAGAGGAGGCAGGCUUCGGUGGCGCGAUAGCGCCAACGUCCUCAACCUCCAAUGCAUCCCACCACAUGAUGAUGCCUGAAGAGCCUUGGUUUUUUG"}}, "data": [{"variants_of": "B1", "assay": "polymerase ribozyme fitness, log enrichment relative to wild type (log ratio); higher = more active; in vitro selection for triplet polymerase activity", "outline": "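Frozen incubation at −7 °C formed the core of a single, triplicate in vitro selection round applied to PCR-built, transcribed mutant libraries of each subunit of a heterodimeric triplet polymerase ribozyme. Extended constructs were gel-excised, captured with streptavidin beads and amplified by RT-PCR, and input and output libraries were Illumina-sequenced with a filter of ≥10 input reads and ≥1 read per output. Fitness is the logarithm of genotype enrichment relative to wild-type enrichment, with inverse-variance-weighted replicate averaging, and the logarithm is base 2.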", "values": [{"variant": "G63C A105U", "polymerase ribozyme fitness (log ratio)": -2.44}, {"variant": "G61U U78C A83U", "polymerase ribozyme fitness (log ratio)": -0.564}, {"variant": "C62A C115A", "polymerase ribozyme fitness (log ratio)": -1.58}, {"variant": "G61U G113A", "polymerase ribozyme fitness (log ratio)": -0.951}, {"variant": "C62U G128U", "polymerase ribozyme fitness (log ratio)": -1.78}, {"variant": "G61U U109C", "polymerase ribozyme fitness (log ratio)": -2.41}, {"variant": "G61U G107C", "polymerase ribozyme fitness (log ratio)": -4.98}, {"variant": "C62U G110A", "polymerase ribozyme fitness (log ratio)": -1.23}, {"variant": "C62G C85A C102U A121U C124U", "polymerase ribozyme fitness (log ratio)": -4.13}, {"variant": "C62G U126C", "polymerase ribozyme fitness (log ratio)": -2.05}, {"variant": "G63A U87C", "polymerase ribozyme fitness (log ratio)": -0.482}, {"variant": "G63A C123A", "polymerase ribozyme fitness (log ratio)": -0.259}, {"variant": "G61U U96G", "polymerase ribozyme fitness (log ratio)": -0.881}, {"variant": "C62A A121C", "polymerase ribozyme fitness (log ratio)": 0.464}, {"variant": "C62U C79U", "polymerase ribozyme fitness (log ratio)": -0.282}, {"variant": "G63A A100U", "polymerase ribozyme fitness (log ratio)": -1.77}, {"variant": "C62U C104U", "polymerase ribozyme fitness (log ratio)": 0.0133}, {"variant": "C62U U131C", "polymerase ribozyme fitness (log ratio)": 0.107}, {"variant": "G61U U112A", "polymerase ribozyme fitness (log ratio)": 1.27}, {"variant": "C62A C123G", "polymerase ribozyme fitness (log ratio)": 0.748}, {"variant": "C62A C123A", "polymerase ribozyme fitness (log ratio)": -0.607}, {"variant": "C62A C123U", "polymerase ribozyme fitness (log ratio)": 0.181}, {"variant": "G63C A75G C85A A95U A100C C115G U126C", "polymerase ribozyme fitness (log ratio)": -5.24}, {"variant": "G63A G120C", "polymerase ribozyme fitness (log ratio)": 0.337}, {"variant": "C62U U87A", "polymerase ribozyme fitness (log ratio)": 0.539}, {"variant": "C62U U109A", "polymerase ribozyme fitness (log ratio)": -4.57}, {"variant": "C62U U109C", "polymerase ribozyme fitness (log ratio)": -4}, {"variant": "C62G U106G", "polymerase ribozyme fitness (log ratio)": -4.29}, {"variant": "C62G A111C", "polymerase ribozyme fitness (log ratio)": -1.87}, {"variant": "G63A C72U C101U", "polymerase ribozyme fitness (log ratio)": -1.24}, {"variant": "G63A U96A", "polymerase ribozyme fitness (log ratio)": -1.81}, {"variant": "G63A U96C", "polymerase ribozyme fitness (log ratio)": -1.54}, {"variant": "C62U U106A", "polymerase ribozyme fitness (log ratio)": 0.471}, {"variant": "G63A C88A", "polymerase ribozyme fitness (log ratio)": -1.42}, {"variant": "C62A U130C", "polymerase ribozyme fitness (log ratio)": -1.71}, {"variant": "G61U U78A G128C", "polymerase ribozyme fitness (log ratio)": -2.72}, {"variant": "C62U A66G", "polymerase ribozyme fitness (log ratio)": -1.54}, {"variant": "C62A U129G", "polymerase ribozyme fitness (log ratio)": -1.28}, {"variant": "C62G G117A U131G", "polymerase ribozyme fitness (log ratio)": -4.48}, {"variant": "G63A U116G", "polymerase ribozyme fitness (log ratio)": -3.24}, {"variant": "G63A U116A", "polymerase ribozyme fitness (log ratio)": -3.92}, {"variant": "G63A U109G", "polymerase ribozyme fitness (log ratio)": -4.41}, {"variant": "G63A G107U", "polymerase ribozyme fitness (log ratio)": -5.22}, {"variant": "C62U U78C C101G A118G U133A", "polymerase ribozyme fitness (log ratio)": -2.5}, {"variant": "C62U C76G U78A", "polymerase ribozyme fitness (log ratio)": -0.661}, {"variant": "C62A A84G G117A", "polymerase ribozyme fitness (log ratio)": -5.26}, {"variant": "C62U A103U", "polymerase ribozyme fitness (log ratio)": -4.85}, {"variant": "C62U A103G", "polymerase ribozyme fitness (log ratio)": -5.08}, {"variant": "C62A C114U", "polymerase ribozyme fitness (log ratio)": -2.2}, {"variant": "G63A U126A", "polymerase ribozyme fitness (log ratio)": -2.47}, {"variant": "C62A G128C", "polymerase ribozyme fitness (log ratio)": -3.8}, {"variant": "C62A U87A U92A U116C", "polymerase ribozyme fitness (log ratio)": -6.88}, {"variant": "G63A A66U U106A G117A", "polymerase ribozyme fitness (log ratio)": -4.86}, {"variant": "C62A U81C C82A C98U", "polymerase ribozyme fitness (log ratio)": -4.18}, {"variant": "C62G U130A", "polymerase ribozyme fitness (log ratio)": -1.59}, {"variant": "C62G C102U G120U", "polymerase ribozyme fitness (log ratio)": -5.14}, {"variant": "G63A A91G", "polymerase ribozyme fitness (log ratio)": -2.33}, {"variant": "G63A A91C", "polymerase ribozyme fitness (log ratio)": -4.17}, {"variant": "G63A A111G", "polymerase ribozyme fitness (log ratio)": -0.659}, {"variant": "G63A G110A", "polymerase ribozyme fitness (log ratio)": -2.72}, {"variant": "G63A G110U", "polymerase ribozyme fitness (log ratio)": -3.42}, {"variant": "G63A G110C", "polymerase ribozyme fitness (log ratio)": -5.57}, {"variant": "C62U U81C C94U U96C C114A", "polymerase ribozyme fitness (log ratio)": -2.82}, {"variant": "C62G G110U", "polymerase ribozyme fitness (log ratio)": -2.94}, {"variant": "C62G G110A", "polymerase ribozyme fitness (log ratio)": -3.33}, {"variant": "C62U U87A U92A G120C", "polymerase ribozyme fitness (log ratio)": -3.58}, {"variant": "G61U U106G", "polymerase ribozyme fitness (log ratio)": -0.849}, {"variant": "G61U U106A", "polymerase ribozyme fitness (log ratio)": 0.146}, {"variant": "C62A C64U C114A A121U C123G", "polymerase ribozyme fitness (log ratio)": -4.48}, {"variant": "G63C A103G", "polymerase ribozyme fitness (log ratio)": -5.66}, {"variant": "G63A C82U C85U A90U C98U A118U", "polymerase ribozyme fitness (log ratio)": -5.21}, {"variant": "C62U G117C", "polymerase ribozyme fitness (log ratio)": -3.31}, {"variant": "C62G G113A C114G A121U", "polymerase ribozyme fitness (log ratio)": -4.27}, {"variant": "C62U G107A", "polymerase ribozyme fitness (log ratio)": -4.72}, {"variant": "C62U G107U", "polymerase ribozyme fitness (log ratio)": -4.02}, {"variant": "G61U U116C", "polymerase ribozyme fitness (log ratio)": 0.227}, {"variant": "C62A A66U C73U A95C C123U", "polymerase ribozyme fitness (log ratio)": -5.94}, {"variant": "G63A C79U A91U", "polymerase ribozyme fitness (log ratio)": -3.61}, {"variant": "C62U C80A A84C", "polymerase ribozyme fitness (log ratio)": -3.26}, {"variant": "G61U C124U", "polymerase ribozyme fitness (log ratio)": 1.52}, {"variant": "G61U U78C", "polymerase ribozyme fitness (log ratio)": -0.574}, {"variant": "G61U U78A", "polymerase ribozyme fitness (log ratio)": 0.0643}, {"variant": "C62A U106G A121G", "polymerase ribozyme fitness (log ratio)": -0.77}]}]}
